This data set concerns the molecule itself. The experiment in a line: Sephacryl S100 gel filtration; self-association. For orientation: Size exclusion chromatography separates by hydrodynamic size, large species first.

B1: Strep-tagged Δ513 of NPR1 (other)
chain: AVLDQIMNCEDLTQLACGEDDTAEKRLQKKQRYMEIQETLKKAFSEDNLELGNSSLTDSTSSTSKSTGGKRSNRKLSHRRR
notes: E. coli-produced; used in S100 gel filtration; not shown: N-terminal Strep-Tag (and any vector linker)
B1: the binding result is “binds”.
